Measured values taken from IntAct's records for PubMed 20571511.

B1: Telomere length regulation protein ELG1 (Saccharomyces cerevisiae), Q12050 (parent)
chain: MKRHVSLSDILTGNKRKVRRQDALQITIDDENDTESGTFDARTAKHDDSSVIFLNHSVVKPIEAVSTNHKSAKEFLMTKRTKEKCDDDDDDLIVISDKSPKSETNCSKIALSQEHEDDISIISTSRIKSSLLNERASKIKNFLKHETTDTFKRLNSISKLNEIEPPLPLHQSIFPVGDKELSDRSVDIPLPFRTIPPLNHNFLPSDYESLKDKNSASCIPVRYQAPVLLGTNIKRNTTLTWPQLFKPVTLKQVLIEPKLKLRIKNWIETSFHTLEKPTLRNRLLNRINPNKQQGSGDELANFIVPDLEEDENLRPDFYRNGEANSSLSEFVPLMILHGNSIGKKTLIQTIMREIAGDDNSYQIYEVNSNMNRSKKDLLDILLDFTTTHYVKDSSKRKSDYGLVLFNDVDVLFKEHDRGYWAMISKLCEFSRRPLVLTCKDLSLVPSELIALASEQNSLFHTKKISTSTVYAFLTKYLKSLEIEVCDDWLRDVVKQNNADIRKCLMHLQFWCVDTEADLISSKNRLPVLTSTLGSSVKDISQLTDLLSINDVIGQATLNRSMVRQEIDSTTMTPEKVNTFQDQNLDDEMKLKFDYVIDYKLHLNDPNRQPLLPFELNIYQHIQEQLEARYSYVREANHRLDNEYLVNRFKKMTESTLNFLASRIPKYDHLQSARRTRNSKKISDILNQFKGIYNDETLNENAEIDLLSATTQQIKAEINPFVFEIAKSDANVKNENKQIFELHSENVSERRYKDLVYQLSQEGVLKNVWFNADPSIVVRKWEHLHSGFSKNK
B2: Proliferating cell nuclear antigen (Saccharomyces cerevisiae), P15873 (parent)
chain: MLEAKFEEASLFKRIIDGFKDCVQLVNFQCKEDGIIAQAVDDSRVLLVSLEIGVEAFQEYRCDHPVTLGMDLTSLSKILRCGNNTDTLTLIADNTPDSIILLFEDTKKDRIAEYSLKLMDIDADFLKIEELQYDSTLSLPSSEFSKIVRDLSQLSDSINIMITKETIKFVADGDIGSGSVIIKPFVDMEHPETSIKLEMDQPVDLTFGAKYLLDIIKGSSLSDRVGIRLSSEAPALFQFDLKSGFLQFFLAPKFNDEE
partner: B1 chain

Variants of: B1
Conditions: with pcna_yeast POL30, P15873
For I28A, the “effect of a mutation on the interaction” value was “disrupting interaction”.
With I93K the “effect of a mutation on the interaction” value was “disrupting interaction”.
In the case of I121A, the “effect of a mutation on the interaction” value is reported as “disrupting interaction”.
I122A was tested, and the “effect of a mutation on the interaction” value was “disrupting interaction”.

Variants of: B1
Conditions: with smt3_yeast SMT3, Q12306
Chain of smt3_yeast SMT3, Q12306 (Q12306 whole entry): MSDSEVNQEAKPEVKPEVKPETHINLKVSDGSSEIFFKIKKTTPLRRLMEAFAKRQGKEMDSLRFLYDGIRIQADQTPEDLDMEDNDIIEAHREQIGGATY
In the case of I28A, the “effect of a mutation on the interaction” value is reported as “decreasing interaction”.
In the case of I93K, the “effect of a mutation on the interaction” value is reported as “decreasing interaction”.
For I121A, the “effect of a mutation on the interaction” value was “decreasing interaction”.
In the case of I122A, the “effect of a mutation on the interaction” value is reported as “decreasing interaction”.

Variants of: B1
Conditions: with smt3_yeast SMT3, Q12306
Remark: another data set of the same source
For I28A, the “effect of a mutation on the interaction” value was “disrupting interaction”.
For I93K, the “effect of a mutation on the interaction” value was “disrupting interaction”.
For I121A, the “effect of a mutation on the interaction” value was “disrupting interaction”.
I122A was tested, and the “effect of a mutation on the interaction” value was “disrupting interaction”.

Variants of: B1
Conditions: with pcna_yeast POL30, P15873
Remark: another data set of the same source
For S57A, the “effect of a mutation on the interaction” value was “decreasing interaction”.
For V58A, the “effect of a mutation on the interaction” value was “decreasing interaction”.

Variants of: B1
Conditions: with pcna_yeast POL30, P15873
Remark: another data set of the same source
In the case of V59A, the “effect of a mutation on the interaction” value is reported as “decreasing interaction”.

Variants of: B2
Conditions: with elg1_yeast ELG1, Q12050
With K164R the “effect of a mutation on the interaction” value was “decreasing interaction”.
